Results: patent US20170035894A1, “DRUG DELIVERY CONJUGATES FOR TREATING RESISTANT CANCER AND FOR USE IN COMBINATION THERAPY” (ENDOCYTE, INC., priority 2014, published 2017)
“Also recorded” adds a separate entry of the source. Marks after values point to notes of the source that are not given here.

Tests used:
[1] = molecular target: T1, folate receptors (FRs) on KB cells (Homo sapiens, UniProt P15328); assay: Relative Affinity Assay (3H-folic acid displacement); type: binding
T1 construct: FR-positive KB cells were heavily seeded into 24-well cell culture plates; endogenous in cells; host or cells: KB cells (human cervical carcinoma)
T1 sequence (P15328 25-234): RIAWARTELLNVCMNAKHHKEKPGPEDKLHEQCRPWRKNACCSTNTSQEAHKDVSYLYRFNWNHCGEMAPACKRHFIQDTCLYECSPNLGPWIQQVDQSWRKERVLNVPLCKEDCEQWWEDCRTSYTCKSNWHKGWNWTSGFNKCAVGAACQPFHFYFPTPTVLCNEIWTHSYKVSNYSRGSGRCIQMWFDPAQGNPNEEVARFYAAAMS
Protocol: METHOD. Relative Affinity Assay. […] Briefly, FR-positive KB cells were heavily seeded into 24-well cell culture plates and allowed to adhere to the plastic for 18 h. Spent incubation media was replaced in designated wells with folate-free RPMI (FFRPMI) supplemented with 100 nM ^3H-folic acid in the absence and presence of increasing concentrations of test article or folic acid. Cells were incubated for 60 min at 37° C. and then rinsed 3 times with PBS, pH 7.4. […] Cell lysates were then collected and added to individual vials containing 5 mL of scintillation cocktail, and then counted for radioactivity. Negative control tubes contained only the ^3H-folic acid in FFRPMI (no competitor). Positive control tubes contained a final concentration of 1 mM folic acid, and CPMs measured in these samples (representing non-specific binding of label) were subtracted from all samples.

A549 = assay: In vitro activity against cancer cell lines, 3H-thymidine incorporation; type: cell-based, human; conditions: FR expression −; evaluated from 0.1-100 nM
Protocol: (§1) METHOD. In vitro activity against various cancer cell lines. IC50 values were generated for various cell lines. Cells were heavily seeded in 24-well Falcon plates and allowed to form nearly confluent monolayers overnight. Thirty minutes prior to the addition of the test compound, spent medium was aspirated from all wells and replaced with fresh folate-deficient RPMI medium (FFRPMI). A subset of wells were designated to receive media containing 100 μM folic acid. The cells in the designated wells were used to determine the targeting specificity. Without being bound by theory it is believed herein that the cytotoxic activity produced by test compounds in the presence of excess folic acid, i.e. where there is competition for FR binding, corresponds to the portion of the total activity that is unrelated to FR-specific delivery. Following one rinse with 1 mL of fresh FFRPMI containing 10% heat-inactivated fetal calf serum, each well received 1 mL of medium containing increasing concentrations of test compound (4 wells per sample) in the presence or absence of 100 μM free folic acid as indicated. Treated cells were pulsed for 2 h at 37° C., rinsed 4 times with 0.5 mL of media, and then chased in 1 mL of fresh medium up to 70 h. Spent medium was aspirated from all wells and replaced with fresh medium containing 5 μCi/mL ^3H-thymidine. Following a further 2 h 37° C. incubation, cells were washed 3 times with 0.5 mL of PBS and then treated with 0.5 mL of ice-cold 5% trichloroacetic acid per well. After 15 min, the trichloroacetic acid was aspirated and the cell material solubilized by the addition of 0.5 mL of 0.25 N sodium hydroxide for 15 min. A 450 μL aliquot of each solubilized sample was transferred to a scintillation vial containing 3 mL of Ecolume scintillation cocktail and then counted in a liquid scintillation counter. Final results are expressed as the percentage of ^3H-thymidine incorporation relative to untreated controls.

AN3CA = assay: as above; type: cell-based, human; conditions: FR expression −; evaluated from 0.1-100 nM
Protocol: as §1

H23 = assay: as above; type: cell-based, human; conditions: FR expression −; evaluated from 0.1-100 nM
Protocol: as §1

HepG2 = assay: as above; type: cell-based, human; conditions: FR expression −; evaluated from 0.1-100 nM
Protocol: as §1

IGROV1 = assay: as above; type: cell-based, human
Protocol: as §1

LNCaP = assay: as above; type: cell-based, human; conditions: FR expression −
Protocol: as §1

MDA-MB-231 = assay: as above; type: cell-based, human
Protocol: as §1

NCl/ADR-RES-Cl2 = assay: as above; type: cell-based, human
Protocol: as §1

[2] = test system: FR expressing cells (FR+) and cells that do not express FR (FR−); assay: Selectivity for folate receptor expressing cells; type: cell-based, human
[3] = test system: KB-CR2000 (cisplatin resistant) tumors; assay: Cisplatin-resistant KB-CR2000 tumor model; type: in vivo, mice
Source text: METHOD. Human cisplatin-resistant cell line. […] In addition, regrowth of the tumor was only observed in 1/5 test animals.

[4] = Toxicity as measured by weight loss / gross animal toxicity in tumor-bearing mice; conditions: for Toxicity Avg. Weight Loss / Toxicity Deaths (%): TIW
Protocol: METHOD. Toxicity as Measured by Weight Loss. The percentage weight change of the test animals was determined on selected days post-tumor inoculation (PTI), and during dosing. The results were graphed.
Evaluation. Tumor size was monitored and body weight measured 3 times/week. Attention was given to gross animal morphology and behavior. Euthanasia was performed if the mice lost >20% of weight or when the tumors reached a size of 1500 mm3. Euthanasia was also performed at the researcher's discretion if mice lost a lot of weight in a short duration or when mice were approaching moribund conditions. Blood samples were collected by cardiac puncture from all viable animals from selected cohorts. Heart, lungs, liver, spleen, kidney, intestines, bone, brain and muscle were obtained immediately after euthanasia. The tissues were removed and stored in 10% neutral-buffered formalin.

[5] = 2 μmol/kg i.v. TIW 2 weeks, nearly 70 day observation period
[6] = KB tumors, 0.5 μmol/kg, 3 weeks
[7] = KB tumors, 0.67 μmol/kg, 2 weeks
[8] = KB tumors, 1.0 μmol/kg, 2 weeks
[9] = KB tumors, 2.0 μmol/kg, 2 weeks

CCCC(=O)OCN(C(=O)[C@@H](NC(=O)[C@H]1CCCCN1C)C(C)CC)[C@H](C[C@@H](OC(C)=O)c1nc(C(=O)N[C@@H](Cc2ccc(O)cc2)C[C@H](C)C(=O)NNC(=O)OCCSSC[C@@H](NC(=O)[C@H](CCC(=O)NC[C@H](O)[C@@H](O)[C@H](O)[C@H](O)CO)NC(=O)[C@@H](CCC(=O)O)NC(=O)[C@H](CCC(=O)NC[C@H](O)[C@@H](O)[C@H](O)[C@H](O)CO)NC(=O)[C@@H](CCC(=O)O)NC(=O)[C@H](CCC(=O)NC[C@H](O)[C@@H](O)[C@H](O)[C@H](O)CO)NC(=O)CC[C@@H](NC(=O)c2ccc(NCc3cnc4nc(N)[nH]c(=O)c4n3)cc2)C(=O)O)C(=O)O)cs1)C(C)C (stereo in doubt) [EC1456]
Relative Affinity (a) [1]: 0.27 | Activity (IC50) (A549): Inactive (a) | Activity (IC50) (AN3CA): Inactive | Activity (IC50) (H23): Inactive | Activity (IC50) (HepG2): Inactive | IC50 (IGROV1; FR expression +): 0.72 nM | Competable up to 100 nM (IGROV1; folic acid competition): Yes | IC50 (LNCaP): ~850 nM | IC50 (MDA-MB-231; FR expression +): 0.47 nM | Competable up to 100 nM (MDA-MB-231; folic acid competition): Yes | IC50 (NCl/ADR-RES-Cl2; FR expression ++): 1.4 nM | Competable up to 100 nM (NCl/ADR-RES-Cl2; folic acid competition): Yes | binding to low and high FR expressing cells (FR+) ([2]; FR+ cells): high competable binding | binding to cells that do not express FR (FR−) ([2]; FR− cells): did not show binding | regrowth of the tumor, test animals [3, 5]: 1/5 | test animals cured (no regrowth) [3, 5]: 4/5 | CRs ([3]; 2 μmol/kg i.v. three times per week, 2 weeks): 5/5 | whole animal toxicity as determined by animal body weight ([4]; KB tumors in nu/nu mice, 1 μmol/kg TIW, 2 weeks): did not result in any observable whole animal toxicity; also recorded: did not show any evidence of whole animal toxicity | gross animal toxicity ([4]; KB tumors, carboplatin/paclitaxel study, EC1456 alone 1 μmol/kg BIW×2): Gross animal toxicity was not observed | toxicity ([4]; KB tumors, carboplatin/paclitaxel study, carboplatin in combination with EC1456): Mild toxicity | Toxicity Avg. Weight Loss [4, 6]: <5%* | Toxicity Deaths (%) [4, 6]: 0% | Toxicity Avg. Weight Loss [4, 7]: <2% | Toxicity Deaths (%) [4, 7]: 0% | Toxicity Avg. Weight Loss [4, 8]: <1.5% | Toxicity Deaths (%) [4, 8]: 0% | Toxicity Avg. Weight Loss [4, 9]: <3% | Toxicity Deaths (%) [4, 9]: 0% | gross animal toxicity ([4]; KB tumors, EC1456 alone 1 μmol/kg BIW×2): Gross animal toxicity was not observed | gross animal toxicity ([4]; KB tumors, EC1456 alone 1 μmol/kg TIW×5): Gross animal toxicity was not observed | toxicity ([4]; KB tumors, cisplatin 3 mg/kg BIW×3 in combination with EC1456): Mild toxicity | toxicity ([4]; KB tumors, docetaxel 7 mg/kg BIW×3 in combination with EC1456): Mild toxicity | weight loss / host animal toxicity ([4]; KB-CR2000 tumors, EC1456 2 μmol/kg TIW 2 weeks): did not exhibit significant host animal toxicity; also recorded: did not cause any weight loss | gross animal toxicity ([4]; KB-DR150 tumors, EC1456 alone 2 μmol/kg TIW×2): Gross animal toxicity was not observed | toxicity ([4]; KB-DR150 tumors, doxorubicin in combination with EC1456): Mild toxicity | gross animal toxicity ([4]; M109 tumors, EC1456 alone 2 μmol/kg TIW×2): Gross animal toxicity was not observed | toxicity ([4]; M109 tumors, cisplatin in combination with EC1456): Mild toxicity | weight loss / gross whole animal toxicity (% weight change) ([4]; MDA-MB-231 tumors, 2 μmol/kg i.v. TIW 2 weeks): did not cause gross whole animal toxicity; also recorded: not accompanied by significant weight loss | gross animal toxicity ([4]; P-1635 KB tumors, EC1456 alone 1 μmol/kg TIW×2): Gross animal toxicity was not observed | toxicity ([4]; P-1635 KB tumors, carboplatin 50 mg/kg TIW in combination with EC1456): Mild toxicity
